# Results reported in the DeepSol protein solubility set.
# Assay: soluble on expression in E. coli; label from the status in PepcDB or PDB records
row,Sequence,soluble on expression in E. coli
1,MPMAKPLKYPVSALVVLYSGDGGILLIERTHPEGFWQSVTGSLEPGETVAQTARREVWEETGILLADGQLQDWHDSTVYEIYHHWRHRYPKGVFENREHLFSAEIPRDTPIALQPEEHVSYGWFDMEEAAEKVFSPSNRRAILELGRFLGKR,not soluble
2,MRCPFCGAEDTSVVDSRISEEGARIRRRRRCVECEKRFTTYETVELRFPQVIKQDGNRVEFNREKLYTSFARALHKRPVPTGQVDAAIERILQKLLGSGVQEISSRTIGEWVMQELYSLDKVAYIRFASVYRSFEDVGDFQEVIREVQSSPQNGDGPSS,not soluble
3,MNRSGQRLIVSAPRQIAFSTAVRQLSATPIQCQNESENSEPQKQGWISRLLKGQSMDPSSWQKQSHSSLLSNSELMYEFMTHNYRPGEQDAYLDAFGKYKNEMNQKNPSIELVGSWTCAYGRTRDQAIHLWRHNKGYEDVDSSISLHGKDSGIRAADNDVAKLCGRRKNLIVKSFSYWREPEQRPPNHVYDLRSYVLQPGTMIDWASAWAKGIQYRREANQDVGGFFAQVGQLYVVYHIWAYPSMSGRNDTRHATWAKPGWDATVANTVPLIKKMQSKILTPTKYSQLE,not soluble
4,SETRSPGLNNMKPQSLQLVLEEQVLALQQQMAENQAASWRKLKNSQEAQQRQATLVRKLQAKVLQYRSWCQELEKRLEATGGPIPQRWENVEEPNLDELLVRLEEEQQRCESLAEVNTQLRLHMEKADVVNKALREDVEKLTVDWK,soluble
5,MQDIRDLTAVLRSKTPIVVIETYEEYRVVDMLKRIANVLYQPLFTWSITQGLTRVDKPMPAQKFNTEPGDILGQIKATTQQGIYVLCDFHPFVVEAPKNVRLLKEIALEYDALQHTLVLVSHAFEIPPEIKRYCAYFQLTLPSTSQLENLIYLEVDKVRTQGIPLNVDDKAVVKLAENLRGVTLDDARRLIHKAIVDDGAITHSDVDLINKAKFQLLDLNGILQFEYDTSDFSQIAGLHNLKKWLKQRAPAAHSPQGVSAAAQIDTPKGVLLLGVQGSGKSLAAKAVAGVWQRPLLRLDMGALYNKYIGETEKNLRNALELADMMSPCILWIDEIEKGLSGSNSDQGISTRILGTLLTWMAERKSEVFVVATANDIQALPPELMRKGRMDEIFFVDLPDETIRKAIFLIHCQRRGIDVSRLDLAQLSRHSQGFSGAEIEQAVIAAMYSARSLGRTLDQDLLLEELTKTRPLSIVMGDKINALRQWAAGRTVNAHELEHHHHHH,soluble
6,MSLATIKDVAQRAGVSPSTASRAMHGSKIISKPTRDKVIKAARELNYAPDFNAQNLATKASNTIGVVLPVDHHEIFSNPFFLEMIRGINEVCSKNGAMTTLATGISSDELVHNIDVMIAQGHIKTFILLYSEKNDPVVERLKQFDVQYVVIGKPYQDVNKTSYVDNDNIQAGTDAAQYLIDHGHRRIGFLYSDLSRMVQSDRMLGYQRVMMQNQLPNIMLEERFETHAAGVKTLHKFFEQYPDVTGFVAVDDMLALKLQQVLHNDPNWKVKQFSLIGFNNSIFSDLAHPMLTSIAVFPQRLGEEAAKIAMADHPADELSTAVIVPHQIVKRHSVHQIKSEGHHHHHH,soluble
7,MKQFLVALTILTSSLFSFASALDIIDESFLALKEFLDQPDSGAFLSLLERARGIFIVPKYLKLGWVLGGQYGQGVLLKRDPETNTWYGPLFVKMYGLSFGPQIGFQSVSLIAVIMENVDAFAEGNITLGGSLSVAAGPLGRRLSADYNLDASVYSYSIARGFYAGFSLEGAKIDVDLDLTREYYNVYRIEPEEILRREVSGRAEKIVNLLNEKLTEEAAALEHHHHHH,not soluble
8,MGSDKIHHHHHHMKILRHFLNATDPCMLQQHIRSIKQDEPANLAIAFGNIDAIVHLSQATEITQLATSWVVTSSCIAAFSDIAAEDNQNHLAILQFYDPQGSYGVASKQSSIDSIIEDSQQALTLALNAANRPGELPAFIWCSQSPGLEEGLLAGIRQLVGNNVPVFGGTAADNDVSGHWCMFDGQQTITTGFIIAVLFPSTPINYFFSSGYETTRHTAIVTSASGRKLHTLNHQPAASVYNQWRTMMALPTLANGPVLAQSTFNPLGRVILDNDEQMTLLSHPAFIYGDGTMELFSEVYQGEQLTFMHGNQTLLIQRAQTVTHFATQQLHDLYDSKPLAAIVIFCAGCMLAIKNETSQVRQGVENALGNVPFIGGFTFGEQGRFADGVNRHGNLMISAIIFGHPNE,not soluble
9,MKQEIIIAGFGGQGVLSMGKILAYSGLMEDKEVTWMPAYGPEQRGGTANVTVIVSDERISSPILSQYDTAIILNQPSLEKFEGKIKPGGILIYDGYGIIEPPTRKDIQIYRIDAMDAANEKGMAKTFNMIVLGGLLKLRPVVSIESVIKALRKTLPERHHHLIPMNEEAIRIGMEIIK,not soluble
10,SHSEAEESKEVAADVFNSKNLAVQAQKKILGKMVSKSIATTLIDDTSSEVLDELYRVTREYTQNKKEAEKIIKNLIKTVIKLAILYRNNQFNQDELALMEKFKKKVHQLAMTVVSFHQVDYTFDRNVLSRLLNECREMLHQIIQRHLTAKSHGRVNNVFDHFSDCEFLAALYNPFGNFKPHLQKLCDGINKMLDEENI,soluble
11,MTDKSKTEKLISSDDKQSVIDGILDMVFNSKAYEVPWISEKLMELSKNKDLDIAGLSLTCFGHLARLHSNIGDYDKVIPLLHSKQDDPELQGRAEDALEDISLFLSENH,not soluble
12,MAVAPTAREENVYMAKLAEQAERYEEMVEFMEKVSNSLGSEELTVEERNLLSVAYKNVIGARRASWRIISSIEQKEESRGNEEHVNSIREYRSKIENELSKICDGILKLLDAKLIPSAASGDSKVFYLKMKGDYHRYLAEFKTGAERKEAAESTLTAYKAAQDIATTELAPTHPIRLGLALNFSVFYYEILNSPDRACNLAKQAFDEAIAELDTLGEESYKDSTLIMQLLRDNLTLWTSDMQDDGADEIKEDPKPDEAKN,soluble
13,MNQKDVKLTVFSSDEKSFMVTATLVEKAGHAFLINSKFTQSDSKEIVEYLKKNNLSLDKIFIIHGDPDYYFGLESIKAVYPEAIAYATESTVEHIVHSVLGKLKVWKDALGENAPSNVVLPQVFKEKAIDFQGLTFELVGLEHYRTSLFNKELKVLIGGIDVFNEIHVFLADTSSKAAMEAWIENLKVLQALHADIIVPSHGSIEKSLNNQALTATMDYLRTAVQASEESGTSKDFVAKLEAAYPDYANKGVLELSAKVVTKELEHHHHHH,not soluble
14,MGPIKTIKKKKRAEKKVDRNVLLAATAAATSASAAAALNNNDDDDDSSSQSLDWWDGFSRRIYGGSTDPKTFESVFKISRKTFDYICSLVKADFTAKPANFSDSNGNPLSLNDRVAVALRRLGSGESLSVIGETFGMNQSTVSQITWRFVESMEERAIHHLSWPSKLDEIKSKFEKISGLPNCCGAIDITHIVMNLPAVEPSNKVWLDGEKNFSMTLQAVVDPDMRFLDVIAGWPGSLNDDVVLKNSGFYKLVEKGKRLNGEKLPLSERTELREYIVGDSGFPLLPWLLTPYQGKPTSLPQTEFNKRHSEATKAAQMALSKLKDRWRIINGVMWMPDRNRLPRIIFVCCLLHNIIIDMEDQTLDDQPLSQQHDMNYRQRSCKLADEASSVLRDELSDQLCGKNSSA,soluble
15,DIGCYTLGNAPPLELIDTCLCMGAGISIAGGISRTTKNSKNVAFIGDSTFFHSGIPAVINAVYNNADVTIAVLDNRTTAMTGHQPHPGTGKTALGKPTKLIDIEGILKSCGVEFVKTVSADDFSACKEISKEVIEYNGPSAVVFRGNCVSLVKSDKKYVIDK,not soluble
16,VTGVASAMAERLKEDGNNCFKKERFGAAIDAYTEAIALSPNVPAYWTNRALCHMKRKDWTKVEEDCRKAIQLVHNSVKAHYMLGLALLQKKEFTNGVKELQRALDLGRC,not soluble
17,MGSDKIHHHHHHMTLKKLRANDRMKQIMAGYYMMGNQAEVKGWITSGAPVELLYAMDIYPVYPENHGALIGAAKQGPYFSDFAERKGFSRDLCSYARCDIGCVFAGTSPIGGLPEPTFLFACNNICNTVVKWYEVLSRIFKVPLFVLDTPFVRKELKESYVKYVHDQLYEFVDFLEKTTGRELSDSKLRDTVIKSIQGVKAYAEVLGMARHKPSPLTCFDAFINMAPIVCLRGTDYPVQFYAEMKEELEERVKRGEGAIENEEIRLLWDNIPVWYRLKWFSEFFAERNACLVADTYTNAWTGFISIDKSDIFWSMAETYTFIYLNIGLEHMAEAINRLIDYYDVDGAVIHSNRSCKPYSFGQYELQKMIEVPSVIIEADMVDSRTFSEAQVETRLEAFLEMLR,not soluble
